Experimental data: publication PMC6498860 (Cell, 2019)

Molecular target: histone H4 (Xenopus laevis, UniProt P62799 2-103)
Assay: cryo-EM structure

binding result: binds
B1: Dot1L(2-416) (domain or fragment)
chain: GEKLELRLKSPVGAEPAVYPWPLPVYDKHHDAAHEIIETIRWVCEEIPDLKLAMENYVLIDYDTKSFESMQRLCDKYNRAIDSIHQLWKGTTQPMKLNTRPSTGLLRHILQQVYNHSVTDPEKLNNYEPFSPEVYGETSFDLVAQMIDEIKMTDDDLFVDLGSGVGQVVLQVAAATNCKHHYGVEKADIPAKYAETMDREFRKWMKWYGKKHAEYTLERGDFLSEEWRERIANTSVIFVNNFAFGPEVDHQLKERFANMKEGGRIVSSKPFAPLNFRINSRNLSDIGTIMRVVELSPLKGSVSWTGKPVSYYLHTIDRTILENYFSSLKNPKLREEQEAARRRQQRESKSNAATPTKGPEGKVAGPADAPMDSGAEEEKAGAATVKKPSPSKARKKKLNKKGRKMAGRKRGRPKK
